Tests used:
[1] = target: T1, full-length Angiopoietin-2-His protein (R&D Systems #623-AN/CF or in house produced material) (human, UniProt O15123 19-496, limits assumed); test: ANG-2 binding ELISA, coated ANG-2
T1 construct: also called human ANG-2; ANG-2-His; not shown: His tag
T1 sequence: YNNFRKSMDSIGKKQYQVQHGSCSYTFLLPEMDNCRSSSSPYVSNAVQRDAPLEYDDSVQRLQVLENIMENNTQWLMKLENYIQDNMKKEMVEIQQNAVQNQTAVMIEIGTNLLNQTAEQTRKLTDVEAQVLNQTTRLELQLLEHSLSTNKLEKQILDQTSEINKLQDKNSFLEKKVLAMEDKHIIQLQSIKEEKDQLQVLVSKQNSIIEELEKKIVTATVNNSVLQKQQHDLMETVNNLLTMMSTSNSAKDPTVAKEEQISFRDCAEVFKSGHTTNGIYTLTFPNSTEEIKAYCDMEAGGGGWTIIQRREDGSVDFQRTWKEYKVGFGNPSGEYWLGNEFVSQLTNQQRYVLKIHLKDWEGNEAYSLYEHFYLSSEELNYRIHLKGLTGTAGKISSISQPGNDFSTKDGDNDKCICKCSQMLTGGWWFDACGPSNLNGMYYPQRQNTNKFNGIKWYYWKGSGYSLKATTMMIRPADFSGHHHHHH

[2] = target: T1, full-length Angiopoietin-2-His protein …; test: cell-based or functional assay
[3] = target: T2, Angiopoietin-1-His (R&D systems #923-AN) (human, UniProt Q15389 20-498, limits assumed); test: ANG-1 binding ELISA, coated ANG-1
T2 construct: also called human ANG-1; hANG-1; not shown: His tag
T2 sequence: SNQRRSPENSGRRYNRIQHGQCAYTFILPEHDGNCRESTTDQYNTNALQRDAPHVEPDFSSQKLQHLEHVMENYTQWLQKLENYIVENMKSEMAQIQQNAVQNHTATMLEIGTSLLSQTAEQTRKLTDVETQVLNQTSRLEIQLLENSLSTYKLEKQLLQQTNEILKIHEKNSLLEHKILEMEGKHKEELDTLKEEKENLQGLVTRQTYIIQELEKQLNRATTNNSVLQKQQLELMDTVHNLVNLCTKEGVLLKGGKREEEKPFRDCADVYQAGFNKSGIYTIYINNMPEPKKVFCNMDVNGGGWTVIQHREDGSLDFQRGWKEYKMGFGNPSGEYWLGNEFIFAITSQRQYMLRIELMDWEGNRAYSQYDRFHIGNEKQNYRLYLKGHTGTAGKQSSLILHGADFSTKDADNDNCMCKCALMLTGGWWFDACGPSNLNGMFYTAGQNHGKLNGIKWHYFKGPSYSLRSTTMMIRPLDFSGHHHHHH

[4] = target: T3, rhVEGF (R&D Systems Cat. No. 293-VE) (human, UniProt P15692 181-395); test: SPR (Biacore), hVEGF affinity
T3 construct: Analyte in the Biacore assays; also called VEGF-A
T3 sequence (P15692 other isoform, or with tags, fused parts or gaps limits assumed): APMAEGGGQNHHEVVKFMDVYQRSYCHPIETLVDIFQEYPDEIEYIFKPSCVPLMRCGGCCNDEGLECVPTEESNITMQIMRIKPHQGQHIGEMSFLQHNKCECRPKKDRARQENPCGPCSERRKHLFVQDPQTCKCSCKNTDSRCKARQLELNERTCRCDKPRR

[5] = target: T3, rhVEGF (R&D Systems Cat. No. 293-VE); test: SPR (Biacore T100), antibody captured via anti-human IgG, rhVEGF analyte, 37 C
[6] = target: T1, full-length Angiopoietin-2-His protein …; test: SPR (Biacore), antibody captured by secondary antibody, ANG-2 analyte; KD only a relative estimation
[7] = target: T4, full-length VEGF165-His protein (R&D Systems) (human, UniProt P15692 181-395); test: VEGF binding ELISA, coated VEGF165
T4 construct: also called recombinant human VEGF165; VEGF-A; not shown: His tag
T4 sequence (P15692 other isoform, or with tags, fused parts or gaps): as the sequence (P15692 other isoform, or with tags, fused parts or gaps limits assumed) above

[8] = target: T1, full-length Angiopoietin-2-His protein …; test: SPR (Biacore T100), antibody captured via anti-hIgG-Fc, ANG-2-His analyte, 25 C; relative estimation
[9] = target: T3, rhVEGF (R&D Systems Cat. No. 293-VE); test: SPR (Biacore), antibody on captured Ang-2, then rhVEGF
[10] = target: T1, full-length Angiopoietin-2-His protein …; test: inhibition of huANG-2 binding to coated Tie-2 (ELISA)

B1: <ANG-2> Ang2k_LC08 (antibody, V domains shown)
VH: QVQLVESGGGVVQPGGSLRLSCAASGFTFSSYGMHWVRQAPGKGLEWVAVISYDGSNKYYADSVKGRFTISRDNSKNTLYLQMNSLRAEDTAVYYCAKPTLDIYMGYYYGMDVWGQGTTVTVSS
VL: QPVLTQPPSASGAPGQRVTISCSGFASNIGSNSVNWYQQVPGTAPKLLIYNNDQRPSGVPDRFSGSRSGTSASLAISGLQSEDEADYYCAAWDDSLNGPVFGGGTKLTVLG
notes: Parent monospecific antibody; also called <ANG-2>Ang2i-LC08
With B1 the EC50 [1] was 0.105 µg/mL, the “IC50, ANGPT2 stimulated Tie2 phosphorylation (HEK293-Tie2 cells), first experiment” value [2] was about 0.499 µg/mL and the “IC50, ANGPT2 stimulated Tie2 phosphorylation (HEK293-Tie2 cells), second experiment” value [2] was about 0.399 µg/mL. For the same binder, the EC50 [3] was 4.04 µg/mL.

B2: <ANG-2>Ang2i_LC06 (antibody, V domains shown)
VH: not shown
VL: QPGLTQPPSVSVAPGQTARITCGGNNIGSKSVHWYQQKPGQAPVLVVYDDSDRPSGIPERFSGSNSGNTATLTISRVEAGDEADYYCQVWDSSSDHYVFGTGTKVTVLG
notes: Parent monospecific antibody
For B2, the EC50 [1] was 0.084 µg/mL, the “IC50, ANGPT2 stimulated Tie2 phosphorylation (HEK293-Tie2 cells), first experiment” value [2] was about 0.508 µg/mL and the “IC50, ANGPT2 stimulated Tie2 phosphorylation (HEK293-Tie2 cells), second experiment” value [2] was about 0.424 µg/mL. For the same binder, the EC50 [3] was over 8 µg/mL.

B3: Bevacizumab-LC06-VH-VL (bispecific antibody, human IgG1, kappa)
heavy 1: not shown
heavy 2: not shown
light 1: QPGLTQPPSVSVAPGQTARITCGGNNIGSKSVHWYQQKPGQAPVLVVYDDSDRPSGIPERFSGSNSGNTATLTISRVEAGDEADYYCQVWDSSSDHYVFGTGTKVTVLRTVAAPSVFIFPPSDEQLKSGTASVVCLLNNFYPREAKVQWKVDNALQSGNSQESVTEQDSKDSTYSLSSTLTLSKADYEKHKVYACEVTHQGLSSPVTKSFNRGEC
light 2: EVQLVESGGGLVQPGGSLRLSCAASGYTFTNYGMNWVRQAPGKGLEWVGWINTYTGEPTYAADFKRRFTFSLDTSKSTAYLQMNSLRAEDTAVYYCAKYPHYYGSSHWYFDVWGQGTLVTVSSASVAAPSVFIFPPSDEQLKSGTASVVCLLNNFYPREAKVQWKVDNALQSGNSQESVTEQDSKDSTYSLSSTLTLSKADYEKHKVYACEVTHQGLSSPVTKSFNRGEC
notes: Bispecific, bivalent domain exchanged antibody (VH-VL exchange); also called Bevacizumab-LC06-CM-VH-VL
B3 gave a Kd [4] of 0.1 nM.

B4: Bevacizumab-LC06-VH-VL-SS (bispecific antibody, human IgG1, kappa)
heavy 1: not shown
heavy 2: not shown
light 1: QPGLTQPPSVSVAPGQTARITCGGNNIGSKSVHWYQQKPGQAPVLVVYDDSDRPSGIPERFSGSNSGNTATLTISRVEAGDEADYYCQVWDSSSDHYVFGCGTKVTVLRTVAAPSVFIFPPSDEQLKSGTASVVCLLNNFYPREAKVQWKVDNALQSGNSQESVTEQDSKDSTYSLSSTLTLSKADYEKHKVYACEVTHQGLSSPVTKSFNRGEC
light 2: EVQLVESGGGLVQPGGSLRLSCAASGYTFTNYGMNWVRQAPGKGLEWVGWINTYTGEPTYAADFKRRFTFSLDTSKSTAYLQMNSLRAEDTAVYYCAKYPHYYGSSHWYFDVWGQGTLVTVSSASVAAPSVFIFPPSDEQLKSGTASVVCLLNNFYPREAKVQWKVDNALQSGNSQESVTEQDSKDSTYSLSSTLTLSKADYEKHKVYACEVTHQGLSSPVTKSFNRGEC
notes: Bispecific, bivalent domain exchanged antibody (VH-VL exchange and an additional VH44 VL100 disulfide bridge)
Work on B4 yielded a Kd [4] of 0.1 nM.

B5: disulfide-stabilized <VEGF-ANG-2> TvAb6 (bispecific antibody, IgG1)
heavy (part 1 of 2): EVQLVESGGGLVQPGGSLRLSCAASGFTISDYWIHWVRQAPGKGLEWVAGITPAGGYTYYADSVKGRFTISADTSKNTAYLQMNSLRAEDTAVYYCARFVFFLPYAMDYWGQGTLVTVSS
heavy (part 2 of 2): not shown
light: DIQMTQSPSSLSASVGDRVTITCRASQDVSTAVAWYQQKPGKAPKLLIYSASFLYSGVPSRFSGSGSGTDFTLTISSLQPEDFATYYCQQGYGNPFTFGQGTKVEIK
notes: Tetravalent: full-length IgG1 G6-31 with a VH44/VL100 disulfide-stabilized Mab536 scFv at the C-terminus of each heavy chain; also called TvAb6 (2331); No. 2331; not shown: IgG1 heavy chain constant region; light chain constant region
For B5, the Kd [5] was 0.00153 nM, the koff [5] was 7.24e-06 s⁻¹ and the kon [5] was 4.72e+06 M⁻¹ s⁻¹. It also gave a t1/2 [5] of 26.6 h and a Kd [6] of 4.4 nM.

B6: <ANG-2> Mab536 (antibody, V domains shown)
VH: EVQLVQSGGGVVQPGRSLRLSCAASGFTFSSYGMHWVRQAPGKGLEWVSYISSSGSTIYYADSVKGRFTISRDNAKNSLYLQMNSLRAEDTAVYYCARDLLDYDILTGYGYWGQGTLVTVSS
VL: not shown
notes: monospecific 'standard' IgG1 antibody; also called Mab536 (1000)
For B6, the binding result [7] was “no binding”, the Kd [8] was 3 nM and the binding result [9] was “no binding (tested: 150 nM VEGF)”. The EC50 [1] was 0.133 µg/mL, the IC50 [10] was 0.015 µg/mL and the EC50 [3] was 2.54 µg/mL. The Kd [6] was 1.6 nM.

B7: <ANG-2>Ang2i_LC07 (antibody, V domains shown)
VH: not shown
VL: QPVLTQSPSVSVAPGETARVACGGNFIGGKSVHWYQQKPGQAPVLVIYDDSERPSGIPERISGSNSGNTATLIITRAEAGDEADYHCQVWDSDSDQGVFGTGTKLTVLG
notes: Parent monospecific antibody
B7 gave an EC50 [1] of 3.01 µg/mL and an EC50 [3] of over 8 µg/mL.

From patent publication US20210047394A1 (Hoffmann-La Roche, published 2021)
